Experimental data from patent publication US20180236053A1 (CELLECTIS, published 2018).

Columns and labels:
[1] = target: T1, CD38-Fc protein (produced by LakePharma) (UniProt P28907 43-300, limits assumed); test: flow cytometry, CD38-Fc fusion protein staining of purified CD38-deficient T cells transfected with CAR mRNA (FIG. 15)
T1 construct: Staining reagent for CAR detection by flow cytometry; also called CD38-Fc fusion protein; not shown: Fc part
Protocol: T cells were purified from buffy coat samples and activated using anti-CD3/CD28 coated beads and IL-2. CD38-1 TALEN mRNA was transfected in T cells at day 4 after activation, 6 days later CD38 negative cells were purified by using magnetic separation (Miltenyi). The day after, CAR mRNAs were transfected. The CAR expression and degranulation capacity of CART cells were assessed 24 hours after the transfection. CAR expression and cytotoxic capacity of CART cells were assessed 48 hours after the transfection.
All CARs were detected 24 h after transfection except the 25A10-V3 However, the latter expressed anti-CD38 CAR above the background. The 13F11-V2, 25A10-V1, 25A10-V2 and 28F5-V2 were highly expressed (more than 80%).

[2] = target: T1, CD38-Fc protein (produced by LakePharma); test: flow cytometry, CD38 Fc staining of CD38/TRAC double KO T cells transduced with rLV (FIG. 27C)
Protocol: The parameters are the following: T cells were activated by using Dynabeads CD3-CD28, the culture were made by using medium Xvivo+5% human serum heat inactivated+IL-2 20 ng/ml, a double KO (DKO) CD38-TRAC was performed by using a ratio of 2 μg TALEN mRNA per million of cells (5 million cells/cuvette); the transduction was performed by using rLV from Vectalys(France) at a MOI of 5.
The screening of the 4 CARs 25A10-v1, -v2, 28F5-v1 and -v2 after rLV transduction in DKO T cells has shown that all the CARs were expressed at the T cell surface with a high efficiency (>40%) and 3 of them above 80% (FIG. 27C). RQR8 expression was correlated with CAR expression (FIG. 27A). Most of the T cells were CD38 negative when T cells have been transduced by CD38 CARs (FIG. 27A). It is shown also that 60-85% of T cells endowed with the above 4 CARs were DKO TRAC/CD38 (FIG. 27B).

[3] = target: CD38 antigen on the surface of cells (U266 CD38+, MOLP8, Daudi, T-ALL cell lines, activated T cells) (human, UniProt P28907 1-300); test: cell-based or functional assay

Row | Binder | % of T cells stained by CD38-Fc (CAR expression) [1] [%] | % of T cells stained by CD38-Fc (CAR expression) [2] [%] | ratio of degranulation against U266 CD38+ and U266 CD38- [3] [ratio]
1 | 25A10-V2 CAR (other, Chimeric antigen receptor on T cells; signal peptide left out here) EVQLQQSGAELVRPGASVKLSCTASGFNIKDSLIHWVKQRPEQGLEWIGWIDPEDDKTKYAPKFQDKATLTADTSSNTAYLQLSTLTSEDTAIYYCVSRYINYYFAYWGQGTTLTVSSGGGGSGGGGSGGGGSDIVMTQSPSSLTVTAGEKVTMSCKSSQSLLHSGNQRNYLTWYQQKPGQPPKLLIYWASTRESGVPDRFTGSGSGTDFTLTISSVQAEDLAVYYCQNDYDYPYTFGGGTKLEIKTTTPAPRPPTPAPTIASQPLSLRPEACRPAAGGAVHTRGLDFACDIYIWAPLAGTCGVLLLSLVITLYCKRGRKKLLYIFKQPFMRPVQTTQEEDGCSCRFPEEEEGGCELRVKFSRSADAPAYQQGQNQLYNELNLGRREEYDVLDKRRGRDPEMGGKPRRKNPQEGLYNELQKDKMAEAYSEIGMKGERRRGKGHDGLYQGLSTATKDTYDALHMQALPPR | > 80 | > 40 | 
2 | 13F11-V2 CAR (other, Chimeric antigen receptor on T cells; signal peptide left out here) QIQLVQSGPELKKPGETVKISCKASGYTFKKYGMNWVKQAPGKGLKWMGWINTNTGEPTYAEEFKGRFAFSLETSASTAYLQINNLKNEDTATYFCARWYYGSTPSSYTMDYWGQGTSVTVSSGGGGSGGGGSGGGGSETTVTQSPASLSVATGEKVTIRCITSTDIDDDMNWYQQKPGEPPKVLISEGNTLRPGVPSRFSSSGYGTDFVFTIENTLSEDVADYYCLQSNNMPYTFGGGTKLEIKTTTPAPRPPTPAPTIASQPLSLRPEACRPAAGGAVHTRGLDFACDIYIWAPLAGTCGVLLLSLVITLYCKRGRKKLLYIFKQPFMRPVQTTQEEDGCSCRFPEEEEGGCELRVKFSRSADAPAYQQGQNQLYNELNLGRREEYDVLDKRRGRDPEMGGKPRRKNPQEGLYNELQKDKMAEAYSEIGMKGERRRGKGHDGLYQGLSTATKDTYDALHMQALPPR | > 80 |  | 
3 | 16B5-V2 CAR (other) QAYLQQSGAELVRSGASVKMSCKASGYTFTSYNLHWVKQTPGQGLEWIGYIYPGNGGTNYNQKFKGKATLTADTSSSTAYMQISSLTSEDSAVYFCARGGIYYYGSSLDYWGQGTTLTVSSGGGGSGGGGSGGGGSNIVLTQSPASLAVSLGQRATISCRASESVDNYGTTFMYWYQQKPGQPPKLLIYLASNLESGVPARFSGSGSGTDFTLTIDPVEADDAATYYCQQNKEDPWTFGGGTKLEIKTTTPAPRPPTPAPTIASQPLSLRPEACRPAAGGAVHTRGLDFACDIYIWAPLAGTCGVLLLSLVITLYCKRGRKKLLYIFKQPFMRPVQTTQEEDGCSCRFPEEEEGGCELRVKFSRSADAPAYQQGQNQLYNELNLGRREEYDVLDKRRGRDPEMGGKPRRKNPQEGLYNELQKDKMAEAYSEIGMKGERRRGKGHDGLYQGLSTATKDTYDALHMQALPPR |  |  | > 2
4 | 13F11-V1 CAR (other) QIQLVQSGPELKKPGETVKISCKASGYTFKKYGMNWVKQAPGKGLKWMGWINTNTGEPTYAEEFKGRFAFSLETSASTAYLQINNLKNEDTATYFCARWYYGSTPSSYTMDYWGQGTSVTVSSGGGGSGGGGSGGGGSETTVTQSPASLSVATGEKVTIRCITSTDIDDDMNWYQQKPGEPPKVLISEGNTLRPGVPSRFSSSGYGTDFVFTIENTLSEDVADYYCLQSNNMPYTFGGGTKLEIKGLAVSTISSFFPPGYQIYIWAPLAGTCGVLLLSLVITLYCKRGRKKLLYIFKQPFMRPVQTTQEEDGCSCRFPEEEEGGCELRVKFSRSADAPAYQQGQNQLYNELNLGRREEYDVLDKRRGRDPEMGGKPRRKNPQEGLYNELQKDKMAEAYSEIGMKGERRRGKGHDGLYQGLSTATKDTYDALHMQALPPR |  |  | > 2
5 | 13F11-V3 CAR (other) QIQLVQSGPELKKPGETVKISCKASGYTFKKYGMNWVKQAPGKGLKWMGWINTNTGEPTYAEEFKGRFAFSLETSASTAYLQINNLKNEDTATYFCARWYYGSTPSSYTMDYWGQGTSVTVSSGGGGSGGGGSGGGGSETTVTQSPASLSVATGEKVTIRCITSTDIDDDMNWYQQKPGEPPKVLISEGNTLRPGVPSRFSSSGYGTDFVFTIENTLSEDVADYYCLQSNNMPYTFGGGTKLEIKEPKSPDKTHTCPPCPAPPVAGPSVFLFPPKPKDTLMIARTPEVTCVVVDVSHEDPEVKFNWYVDGVEVHNAKTKPREEQYNSTYRVVSVLTVLHQDWLNGKEYKCKVSNKALPAPIEKTISKAKGQPREPQVYTLPPSRDELTKNQVSLTCLVKGFYPSDIAVEWESNGQPENNYKTTPPVLDSDGSFFLYSKLTVDKSRWQQGNVFSCSVMHEALHNHYTQKSLSLSPGKIYIWAPLAGTCGVLLLSLVITLYCKRGRKKLLYIFKQPFMRPVQTTQEEDGCSCRFPEEEEGGCELRVKFSRSADAPAYQQGQNQLYNELNLGRREEYDVLDKRRGRDPEMGGKPRRKNPQEGLYNELQKDKMAEAYSEIGMKGERRRGKGHDGLYQGLSTATKDTYDALHMQALPPR |  |  | > 2

Now from value to binder:

Row | % of T cells stained by CD38-Fc (CAR expression) [1] [%] | % of T cells stained by CD38-Fc (CAR expression) [2] [%] | ratio of degranulation against U266 CD38+ and U266 CD38- [3] [ratio] | Binder
6 |  |  | > 2 | 16B5-V1 CAR (other) QAYLQQSGAELVRSGASVKMSCKASGYTFTSYNLHWVKQTPGQGLEWIGYIYPGNGGTNYNQKFKGKATLTADTSSSTAYMQISSLTSEDSAVYFCARGGIYYYGSSLDYWGQGTTLTVSSGGGGSGGGGSGGGGSNIVLTQSPASLAVSLGQRATISCRASESVDNYGTTFMYWYQQKPGQPPKLLIYLASNLESGVPARFSGSGSGTDFTLTIDPVEADDAATYYCQQNKEDPWTFGGGTKLEIKGLAVSTISSFFPPGYQIYIWAPLAGTCGVLLLSLVITLYCKRGRKKLLYIFKQPFMRPVQTTQEEDGCSCRFPEEEEGGCELRVKFSRSADAPAYQQGQNQLYNELNLGRREEYDVLDKRRGRDPEMGGKPRRKNPQEGLYNELQKDKMAEAYSEIGMKGERRRGKGHDGLYQGLSTATKDTYDALHMQALPPR
7 |  | > 40 | > 2 | 28F5-V1 CAR (other, Chimeric antigen receptor on T cells; signal peptide left out here) QIQLVQSGPELKKPGETVKISCKASGYTFTKYGMNWVKQTPGKGLKWMGWINTNSGEPTYAEEFKGRFAFSLETSASTAYLQINNLKNEDTATYFCARGAYYRYDGEVSYYAMDYWGQGTSVTVSSGGGGSGGGGSGGGGSQIILTQSPAIMSASLGERVTMTCTATSSLSSSYLHWYQQKPGSSPKLWIYSTSHLASGVPARFSGGGSGTSYSLTISSMEAEDAATYYCHQYHLSPYTFGGGTKLEIKGLAVSTISSFFPPGYQIYIWAPLAGTCGVLLLSLVITLYCKRGRKKLLYIFKQPFMRPVQTTQEEDGCSCRFPEEEEGGCELRVKFSRSADAPAYQQGQNQLYNELNLGRREEYDVLDKRRGRDPEMGGKPRRKNPQEGLYNELQKDKMAEAYSEIGMKGERRRGKGHDGLYQGLSTATKDTYDALHMQALPPR
8 |  |  | > 2 | GMB005-V1 CAR (other) EVQLLESGGGLVQPGGSLRLSCAVSGFTFNSFAMSWVRQAPGKGLEWVSAISGSGGGTYYADSVKGRFTISRDNSKNTLYLQMNSLRAEDTAVYFCAKDKILWFGEPVFDYWGQGTLVTVSSASGGGGSGGGGSGGGGSEIVLTQSPATLSLSPGERATLSCRASQSVSSYLAWYQQKPGQAPRLLIYDASNRATGIPARFSGSGSGTDFTLTISSLEPEDFAVYYCQQRSNWPPTFGQGTKVEIKGLAVSTISSFFPPGYQIYIWAPLAGTCGVLLLSLVITLYCKRGRKKLLYIFKQPFMRPVQTTQEEDGCSCRFPEEEEGGCELRVKFSRSADAPAYQQGQNQLYNELNLGRREEYDVLDKRRGRDPEMGGKPRRKNPQEGLYNELQKDKMAEAYSEIGMKGERRRGKGHDGLYQGLSTATKDTYDALHMQALPPR
9 | > 80 | > 40 | > 2 | 25A10-V1 CAR (other, signal peptide left out here) EVQLQQSGAELVRPGASVKLSCTASGFNIKDSLIHWVKQRPEQGLEWIGWIDPEDDKTKYAPKFQDKATLTADTSSNTAYLQLSTLTSEDTAIYYCVSRYINYYFAYWGQGTTLTVSSGGGGSGGGGSGGGGSDIVMTQSPSSLTVTAGEKVTMSCKSSQSLLHSGNQRNYLTWYQQKPGQPPKLLIYWASTRESGVPDRFTGSGSGTDFTLTISSVQAEDLAVYYCQNDYDYPYTFGGGTKLEIKGLAVSTISSFFPPGYQIYIWAPLAGTCGVLLLSLVITLYCKRGRKKLLYIFKQPFMRPVQTTQEEDGCSCRFPEEEEGGCELRVKFSRSADAPAYQQGQNQLYNELNLGRREEYDVLDKRRGRDPEMGGKPRRKNPQEGLYNELQKDKMAEAYSEIGMKGERRRGKGHDGLYQGLSTATKDTYDALHMQALPPR
